Reference: patent publication US20090149339A1 (published 2009)
Ends that are not written are not given here. * marks the point of attachment. Biotin = O=C1N[C@H]2[C@H](CS[C@H]2CCCCC(=O)*)N1

Biological target: T1, GST-CASK PDZ domain fusion protein (CASK AA495-584; PDZ domain 1 of 1) (mouse, UniProt P08515 1-218 = GST)
T1 construct: also called mCASK
Assay: A/G assays

T1 sequence (P08515 1-218, tags or fused parts left off): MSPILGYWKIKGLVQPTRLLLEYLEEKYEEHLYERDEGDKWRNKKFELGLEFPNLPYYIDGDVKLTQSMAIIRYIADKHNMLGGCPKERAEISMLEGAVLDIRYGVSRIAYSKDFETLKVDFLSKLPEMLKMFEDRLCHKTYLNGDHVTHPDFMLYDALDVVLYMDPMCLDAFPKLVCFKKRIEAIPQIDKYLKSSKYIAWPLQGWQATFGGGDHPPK

Row | Binder | binding result
1 | Biotin-SSSQSLESDGSYQKPSYIL [CD62E C-terminal PL peptide AA48L, biotinylated] | no binding
2 | Biotin-PSWRRSSLSESENATSLTTF [BLR-1 C-terminal PL peptide AA45L, biotinylated] | no binding

Biological target: GST-LIM PDZ domain fusion protein (Human LIM protein AA29-112; PDZ domain 1 of 1) (human, UniProt P08515 1-218 = GST)
Sequence (P08515 1-218, tags or fused parts left off): as the sequence (P08515 1-218, tags or fused parts left off) above
Assay: A/G assays

Row | Binder | binding result
3 | Biotin-SSSQSLESDGSYQKPSYIL [CD62E C-terminal PL peptide AA48L, biotinylated] | no binding
4 | Biotin-PSWRRSSLSESENATSLTTF [BLR-1 C-terminal PL peptide AA45L, biotinylated] | no binding

Biological target: GST-LIMK2 PDZ domain fusion protein (human LIM domain kinase 2 AA185-275; PDZ domain 1 of 1) (human, UniProt P08515 1-218 = GST)
Sequence (P08515 1-218, tags or fused parts left off): as the sequence (P08515 1-218, tags or fused parts left off) above
Assay: A/G assays

Row | Binder | binding result
5 | Biotin-SSSQSLESDGSYQKPSYIL [CD62E C-terminal PL peptide AA48L, biotinylated] | no binding
6 | Biotin-PSWRRSSLSESENATSLTTF [BLR-1 C-terminal PL peptide AA45L, biotinylated] | no binding

Biological target: T2, GST-MPP2 PDZ domain fusion protein (maguk p55 subfamily member 2 (DLG2) AA185-273; PDZ domain 1 of 1) (UniProt P08515 1-218 = GST)
T2 construct: also called MMP2
T2 sequence (P08515 1-218, tags or fused parts left off): as the sequence (P08515 1-218, tags or fused parts left off) above
Assay: A/G assays

Row | Binder | binding result
7 | Biotin-SSSQSLESDGSYQKPSYIL [CD62E C-terminal PL peptide AA48L, biotinylated] | no binding
8 | Biotin-PSWRRSSLSESENATSLTTF [BLR-1 C-terminal PL peptide AA45L, biotinylated] | no binding

Biological target: GST-NOS1 PDZ domain fusion protein (human neuronal nitric oxide synthase; PDZ domain 1 of 1) (human, UniProt P08515 1-218 = GST)
Assay: A/G assays

Row | Binder | binding result
9 | Biotin-SSSQSLESDGSYQKPSYIL [CD62E C-terminal PL peptide AA48L, biotinylated] | no binding
10 | Biotin-PSWRRSSLSESENATSLTTF [BLR-1 C-terminal PL peptide AA45L, biotinylated] | no binding

Biological target: GST-AF6 PDZ domain fusion protein (af-6 protein AA985-1077; PDZ domain 1 of 1) (UniProt P08515 1-218 = GST)
Sequence (P08515 1-218, tags or fused parts left off): as the sequence (P08515 1-218, tags or fused parts left off) above
Assay: A/G assays

Row | Binder | binding result
11 | Biotin-SSSQSLESDGSYQKPSYIL [CD62E C-terminal PL peptide AA48L, biotinylated] | no binding
12 | Biotin-PSWRRSSLSESENATSLTTF [BLR-1 C-terminal PL peptide AA45L, biotinylated] | no binding

Biological target: GST-PTN-4 PDZ domain fusion protein (protein-tyrosine phosphatase meg1 AA774-862; PDZ domain 1 of 1) (UniProt P08515 1-218 = GST)
Sequence (P08515 1-218, tags or fused parts left off): as the sequence (P08515 1-218, tags or fused parts left off) above
Assay: A/G assays

Row | Binder | binding result
13 | Biotin-SSSQSLESDGSYQKPSYIL [CD62E C-terminal PL peptide AA48L, biotinylated] | no binding
14 | Biotin-PSWRRSSLSESENATSLTTF [BLR-1 C-terminal PL peptide AA45L, biotinylated] | no binding

Biological target: GST-prIL16 PDZ domain fusion protein (putative interleukin 16 precursor AA170-383; PDZ domains 1-2 of 2) (UniProt P08515 1-218 = GST)
Sequence (P08515 1-218, tags or fused parts left off): as the sequence (P08515 1-218, tags or fused parts left off) above
Assay: A/G assays

Row | Binder | binding result
15 | Biotin-SSSQSLESDGSYQKPSYIL [CD62E C-terminal PL peptide AA48L, biotinylated] | no binding
16 | Biotin-PSWRRSSLSESENATSLTTF [BLR-1 C-terminal PL peptide AA45L, biotinylated] | no binding

Biological target: T3, GST-41.8 kD PDZ domain fusion protein (hypothetical 41.8 kD protein AA4-85; PDZ domain 1 of 1) (UniProt P08515 1-218 = GST)
T3 construct: also called hypoth
T3 sequence (P08515 1-218, tags or fused parts left off): as the sequence (P08515 1-218, tags or fused parts left off) above
Assay: A/G assays

Row | Binder | binding result
17 | Biotin-SSSQSLESDGSYQKPSYIL [CD62E C-terminal PL peptide AA48L, biotinylated] | no binding
18 | Biotin-PSWRRSSLSESENATSLTTF [BLR-1 C-terminal PL peptide AA45L, biotinylated] | no binding

Biological target: T4, GST-KIAA0559 PDZ domain fusion protein (KIAA0559 AA766-870; PDZ1 of 1) (UniProt P08515 1-218 = GST)
T4 construct: also called K559
T4 sequence (P08515 1-218, tags or fused parts left off): as the sequence (P08515 1-218, tags or fused parts left off) above
Assay: A/G assays

Row | Binder | binding result
19 | Biotin-SSSQSLESDGSYQKPSYIL [CD62E C-terminal PL peptide AA48L, biotinylated] | no binding
20 | Biotin-PSWRRSSLSESENATSLTTF [BLR-1 C-terminal PL peptide AA45L, biotinylated] | no binding

Biological target: GST-MPP1 PDZ domain fusion protein (55 Kd erythrocyte membrane protein AA101-186; PDZ domain 1 of 1) (UniProt P08515 1-218 = GST)
Sequence (P08515 1-218, tags or fused parts left off): as the sequence (P08515 1-218, tags or fused parts left off) above
Assay: A/G assays

Row | Binder | binding result
21 | Biotin-SSSQSLESDGSYQKPSYIL [CD62E C-terminal PL peptide AA48L, biotinylated] | no binding
22 | Biotin-PSWRRSSLSESENATSLTTF [BLR-1 C-terminal PL peptide AA45L, biotinylated] | no binding

Biological target: T5, GST-RGS12 PDZ domain fusion protein (human regulator of G-protein signalling 12 AA35-103; PDZ domain 1 of 1) (human, UniProt P08515 1-218 = GST)
T5 construct: also called RSG12
T5 sequence (P08515 1-218, tags or fused parts left off): as the sequence (P08515 1-218, tags or fused parts left off) above
Assay: A/G assays

Row | Binder | binding result
23 | Biotin-SSSQSLESDGSYQKPSYIL [CD62E C-terminal PL peptide AA48L, biotinylated] | no binding
24 | Biotin-PSWRRSSLSESENATSLTTF [BLR-1 C-terminal PL peptide AA45L, biotinylated] | no binding

Biological target: T6, GST-KIAA0316 PDZ domain fusion protein (KIAA0316 AA197-284; PDZ domain 1 of 1) (UniProt P08515 1-218 = GST)
T6 construct: also called K316
Assay: A/G assays

Row | Binder | binding result
25 | Biotin-SSSQSLESDGSYQKPSYIL [CD62E C-terminal PL peptide AA48L, biotinylated] | no binding
26 | Biotin-PSWRRSSLSESENATSLTTF [BLR-1 C-terminal PL peptide AA45L, biotinylated] | no binding

Biological target: GST-DVL1 PDZ domain fusion protein (human dishevelled segment polarity protein homolog AA248-340); PDZ domain … (human, UniProt P08515 1-218 = GST)
Assay: A/G assays

Row | Binder | binding result
27 | Biotin-SSSQSLESDGSYQKPSYIL [CD62E C-terminal PL peptide AA48L, biotinylated] | no binding
28 | Biotin-PSWRRSSLSESENATSLTTF [BLR-1 C-terminal PL peptide AA45L, biotinylated] | no binding

Biological target: T7, GST-TAX40 PDZ domain fusion protein (human tax interaction protein 40 AA35-137; PDZ domain 1 of 1) (human, UniProt P08515 1-218 = GST)
T7 construct: also called TX 40
T7 sequence (P08515 1-218, tags or fused parts left off): as the sequence (P08515 1-218, tags or fused parts left off) above
Assay: A/G assays

Row | Binder | binding result
29 | Biotin-SSSQSLESDGSYQKPSYIL [CD62E C-terminal PL peptide AA48L, biotinylated] | no binding
30 | Biotin-PSWRRSSLSESENATSLTTF [BLR-1 C-terminal PL peptide AA45L, biotinylated] | no binding

Biological target: GST-TIAM1 PDZ domain fusion protein (T-lymphoma invasion and metastasis inducing protein 1 AA1001-1088); PDZ 1 … (UniProt P08515 1-218 = GST)
Sequence (P08515 1-218, tags or fused parts left off): as the sequence (P08515 1-218, tags or fused parts left off) above
Assay: A/G assays

Row | Binder | binding result
31 | Biotin-SSSQSLESDGSYQKPSYIL [CD62E C-terminal PL peptide AA48L, biotinylated] | no binding
32 | Biotin-PSWRRSSLSESENATSLTTF [BLR-1 C-terminal PL peptide AA45L, biotinylated] | no binding

Biological target: T8, GST-KIAA0303 PDZ domain fusion protein (KIAA0303 AA652-742; PDZ domain 1 of 1) (UniProt P08515 1-218 = GST)
T8 construct: also called K303
T8 sequence (P08515 1-218, tags or fused parts left off): as the sequence (P08515 1-218, tags or fused parts left off) above
Assay: A/G assays

Row | Binder | binding result
33 | Biotin-SSSQSLESDGSYQKPSYIL [CD62E C-terminal PL peptide AA48L, biotinylated] | no binding
34 | Biotin-PSWRRSSLSESENATSLTTF [BLR-1 C-terminal PL peptide AA45L, biotinylated] | no binding

Biological target: T9, GST-CBP PDZ domain fusion protein (Cytohesin binding protein HE AA85-175; PDZ domain 1 of 1) (UniProt P08515 1-218 = GST)
T9 construct: also called Prot
T9 sequence (P08515 1-218, tags or fused parts left off): as the sequence (P08515 1-218, tags or fused parts left off) above
Assay: A/G assays

Row | Binder | binding result
35 | Biotin-SSSQSLESDGSYQKPSYIL [CD62E C-terminal PL peptide AA48L, biotinylated] | no binding
36 | Biotin-PSWRRSSLSESENATSLTTF [BLR-1 C-terminal PL peptide AA45L, biotinylated] | no binding

Biological target: GST-MINT3 PDZ domain fusion protein (human MINT3 AA11-52; PDZ domain 1 of 1) (human, UniProt P08515 1-218 = GST)
Sequence (P08515 1-218, tags or fused parts left off): as the sequence (P08515 1-218, tags or fused parts left off) above
Assay: A/G assays

Row | Binder | binding result
37 | Biotin-SSSQSLESDGSYQKPSYIL [CD62E C-terminal PL peptide AA48L, biotinylated] | no binding
38 | Biotin-PSWRRSSLSESENATSLTTF [BLR-1 C-terminal PL peptide AA45L, biotinylated] | no binding

Biological target: T10, GST-TAX2 PDZ domain fusion protein (human tax interaction protein 2 AA54-140; PDZ domain 1 of 1) (human, UniProt P08515 1-218 = GST)
T10 construct: also called TX 2
T10 sequence (P08515 1-218, tags or fused parts left off): as the sequence (P08515 1-218, tags or fused parts left off) above
Assay: A/G assays

Row | Binder | binding result
39 | Biotin-SSSQSLESDGSYQKPSYIL [CD62E C-terminal PL peptide AA48L, biotinylated] | no binding
40 | Biotin-PSWRRSSLSESENATSLTTF [BLR-1 C-terminal PL peptide AA45L, biotinylated] | no binding

Biological target: GST-PSD95 PDZ domain fusion protein (human post-synaptic density protein 95 AA387-724; PDZ domains 1-3 of 3) (human, UniProt P08515 1-218 = GST)
Assay: A/G assays

Row | Binder | binding result
41 | Biotin-SSSQSLESDGSYQKPSYIL [CD62E C-terminal PL peptide AA48L, biotinylated] | no binding
42 | Biotin-PSWRRSSLSESENATSLTTF [BLR-1 C-terminal PL peptide AA45L, biotinylated] | no binding

Biological target: T11, GST-NeDLG PDZ domain fusion protein (presynaptic protein sao102, neuroendocrine-dlg; PDZ domains 1-2 of 3) (UniProt P08515 1-218 = GST)
T11 construct: also called NeDLG1
T11 sequence (P08515 1-218, tags or fused parts left off): as the sequence (P08515 1-218, tags or fused parts left off) above
Assay: A/G assays

Row | Binder | binding result
43 | Biotin-SSSQSLESDGSYQKPSYIL [CD62E C-terminal PL peptide AA48L, biotinylated] | no binding
44 | Biotin-PSWRRSSLSESENATSLTTF [BLR-1 C-terminal PL peptide AA45L, biotinylated] | no binding

Biological target: T12, GST-TAX33 PDZ domain fusion protein (tax interaction protein 33 AA73-162; PDZ domain 1 of 1) (UniProt P08515 1-218 = GST)
T12 construct: also called TX33
T12 sequence (P08515 1-218, tags or fused parts left off): as the sequence (P08515 1-218, tags or fused parts left off) above
Assay: A/G assays

Row | Binder | binding result
45 | Biotin-SSSQSLESDGSYQKPSYIL [CD62E C-terminal PL peptide AA48L, biotinylated] | no binding
46 | Biotin-PSWRRSSLSESENATSLTTF [BLR-1 C-terminal PL peptide AA45L, biotinylated] | no binding

Biological target: T13, GST-SYN1a PDZ domain fusion protein (alpha1-syntrophin AA96-189; PDZ domain 1 of 1) (UniProt P08515 1-218 = GST)
T13 construct: also called SYN 1 alpha; SYNTR 1 alpha
T13 sequence (P08515 1-218, tags or fused parts left off): as the sequence (P08515 1-218, tags or fused parts left off) above
Assay: A/G assays

Row | Binder | binding result
47 | Biotin-SSSQSLESDGSYQKPSYIL [CD62E C-terminal PL peptide AA48L, biotinylated] | no binding
48 | Biotin-PSWRRSSLSESENATSLTTF [BLR-1 C-terminal PL peptide AA45L, biotinylated] | no binding

Biological target: T14, GST-TAX43 PDZ domain fusion protein (human tax interaction protein 43 AA15-85; PDZ domain 1 of 1) (human, UniProt P08515 1-218 = GST)
T14 construct: also called TX 43
T14 sequence (P08515 1-218, tags or fused parts left off): as the sequence (P08515 1-218, tags or fused parts left off) above
Assay: A/G assays

Row | Binder | binding result
49 | Biotin-SSSQSLESDGSYQKPSYIL [CD62E C-terminal PL peptide AA48L, biotinylated] | no binding
50 | Biotin-PSWRRSSLSESENATSLTTF [BLR-1 C-terminal PL peptide AA45L, biotinylated] | no binding
